Usually Kd stands for a measure of binding affinity in units of concentration.

From patent US20230398224A1 (Novartis, published 2023) come the findings set out here.

Sequences and labels used below:
T1: Purified FHR3 with C-terminal biotinylated Avitag (human, UniProt Q02985 19-330, biotin on the C-terminal Avitag)
T1 construct: Immobilised on a NeutrAvidin NLC chip for SPR; also called complement factor H-related protein 3; hFHR3; not shown: C-terminal biotinylated Avitag
T1 sequence (looked up): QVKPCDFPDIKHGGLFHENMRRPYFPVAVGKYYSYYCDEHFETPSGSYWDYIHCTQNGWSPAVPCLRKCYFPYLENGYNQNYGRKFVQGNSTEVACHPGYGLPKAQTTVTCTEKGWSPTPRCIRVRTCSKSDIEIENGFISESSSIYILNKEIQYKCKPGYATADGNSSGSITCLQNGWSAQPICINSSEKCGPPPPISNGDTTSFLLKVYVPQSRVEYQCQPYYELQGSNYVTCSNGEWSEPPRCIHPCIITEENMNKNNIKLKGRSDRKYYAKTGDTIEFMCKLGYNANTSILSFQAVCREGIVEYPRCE

B1: Cyclic peptide compound (C16) (peptide)
peptide: {CH2CO}-FR[NMeF]SVNY[Sar]RK[Tic]N[NMeF]CG-NH2
modifications: thioether N-14
SMILES: CC(C)[C@@H]1NC(=O)[C@H](CO)NC(=O)[C@H](Cc2ccccc2)N(C)C(=O)[C@H](CCCNC(=N)N)NC(=O)[C@H](Cc2ccccc2)NC(=O)CSC[C@@H](C(=O)NCC(N)=O)NC(=O)[C@H](Cc2ccccc2)N(C)C(=O)[C@H](CC(N)=O)NC(=O)[C@@H]2Cc3ccccc3CN2C(=O)[C@H](CCCCN)NC(=O)[C@H](CCCNC(=N)N)NC(=O)CN(C)C(=O)[C@H](Cc2ccc(O)cc2)NC(=O)[C@H](CC(N)=O)NC1=O
notes: Synthetic cyclic peptide; also called FHR3 receptor ligand compound (C16)
B2: Cyclic peptide compound (C13) (peptide)
peptide: {CH2CO}-FK[NMeA]SLHW[NMeA]RPDRCG-NH2
modifications: thioether N-13
SMILES: CC(C)C[C@@H]1NC(=O)[C@H](CO)NC(=O)[C@H](C)N(C)C(=O)[C@H](CCCCN)NC(=O)[C@H](Cc2ccccc2)NC(=O)CSC[C@@H](C(=O)NCC(N)=O)NC(=O)[C@H](CCCNC(=N)N)NC(=O)[C@H](CC(=O)O)NC(=O)[C@@H]2CCCN2C(=O)[C@H](CCCNC(=N)N)NC(=O)[C@H](C)N(C)C(=O)[C@H](Cc2c[nH]c3ccccc23)NC(=O)[C@H](Cc2c[nH]cn2)NC1=O
notes: Synthetic cyclic peptide; also called FHR3 receptor ligand compound (C13)
B3: Cyclic peptide compound (C12) (peptide)
peptide: {CH2CO}-FR[NMeF]SKNY[Sar]RD[Tic]N[NMeF]CG-NH2
modifications: thioether N-14; also: classes: D-residues
notes: Synthetic cyclic peptide with non-natural residues; also called FHR3 receptor ligand compound (C12)
B4: Cyclic peptide compound (C15) (peptide)
peptide: {CH2CO}-F[NMeF][NMeA]SLHW[NMeA]RKDRCG-NH2
modifications: thioether N-13
notes: also called FHR3 receptor ligand compound (C15)
B5: Cyclic peptide compound (C14) (peptide)
peptide: {CH2CO}-FR[NMeF]SVNYKRS[Tic]N[NMeF]CG-NH2
modifications: thioether N-14
SMILES: CC(C)[C@@H]1NC(=O)[C@H](CO)NC(=O)[C@H](Cc2ccccc2)N(C)C(=O)[C@H](CCCNC(=N)N)NC(=O)[C@H](Cc2ccccc2)NC(=O)CSC[C@@H](C(=O)NCC(N)=O)NC(=O)[C@H](Cc2ccccc2)N(C)C(=O)[C@H](CC(N)=O)NC(=O)[C@@H]2Cc3ccccc3CN2C(=O)[C@H](CO)NC(=O)[C@H](CCCNC(=N)N)NC(=O)[C@H](CCCCN)NC(=O)[C@H](Cc2ccc(O)cc2)NC(=O)[C@H](CC(N)=O)NC1=O
notes: Synthetic cyclic peptide; also called FHR3 receptor ligand compound (C14)
B6: Cyclic peptide (C5) (peptide)
peptide: {CH2CO}-FVPTT[Bip][NMeA][Bip][NMeA]EAPCGK(4‑oxopentanoyl)-NH2
modifications: thioether N-13
notes: also called PCSK9 ligand (C5); PCSK9 receptor ligand compound (C5)
B7: Bifunctional compound (BFC-2) (other)
peptide: {CH2CO}-FVPTT[Bip][NMeA][Bip][NMeA]EAPCGK([4‑formylbenzoyl-int‑CC6])-NH2
modifications: thioether N-13; reading uncertain; also: 4-formylbenzoyl joined to int-CC6 as oxime
B8: Bifunctional compound (BFC-4) (other)
peptide: {CH2CO}-FVPTT[Bip][NMeA][Bip][NMeA]EAPCGK-NH2
modifications: thioether N-13; not fully specified (residue 15); also: int-DD2 linker joined by two oximes to int-CC7
B9: Bifunctional compound (BFC-8) (other)
peptide: {CH2CO}-FVPTT[Bip][NMeA][Bip][NMeA]EAPCGK([Lys(4-oxopentanoyl)-int‑CC7])-NH2
modifications: thioether N-13; not fully specified; also: further groups not given here
notes: BFC-8 and BFC-9 come from the same reaction of int-DD6 with int-CC7
B10: Bifunctional compound (BFC-9) (other)
peptide: {CH2CO}-FVPTT[Bip][NMeA][Bip][NMeA]EAPCGK([Lys(4-oxopentanoyl)-int‑CC7])-NH2
modifications: thioether N-13; not fully specified; also: further groups not given here
notes: as for B9

Positions of bridges follow the written chain, without caps; N, C: chain ends. Non-standard residues stand in square brackets, D forms with d. Groups on a side chain read outwards from the residue. int‑CC7 = mannose-6-phosphonate M6PR ligand; tri‑GalNAc ASGPR ligand = not defined here; Bip = N[C@@H](Cc1ccc(-c2ccccc2)cc1)C(=O)O; NMeF = CN[C@@H](Cc1ccccc1)C(=O)O; Tic = O=C(O)[C@@H]1Cc2ccccc2CN1; int‑CC6 = not defined here; NMeA = CN[C@@H](C)C(=O)O; Sar = CNCC(=O)O

The target of one experiment is T1, Purified FHR3 with C-terminal …. The experiment in a line: SPR, ProteOn XPR36; biotinylated FHR3 on NeutrAvidin NLC chip. As for the experimental part: SPR was used to obtain the binding data for FHR3 receptor ligands compounds (C12), (C13), (C14), (C15) and (C16), either alone or as part of the bifunctional compounds (BFC13), (BFC14), (BFC15), (BFC16) and (BFC17), respectively.
(§1) SPR Binding experiments were performed on a Proteon XPR36 instrument (Bio-Rad Laboratories). Purified FHR3 with C-terminal biotinylated Avitag was used for the assay. Biotinylated FHR3 was incubated with fivefold molar excess of bifunctional compounds (BFC13), (BFC14), (BFC15), (BFC16) or (BFC17), or compounds (C12), (C13), (C14), (C15) or (C16), and immobilized onto a Neutravidin coated sensor chip. (NLC chip, Bio-Rad Laboratories, Inc). After conditioning the chip by injecting running buffer (20 mM Tris pH7.5, 300 mM NaCl, 25 mM CaCl₂, 2 mM betamercaptoethanol, 2% DMSO and 0.05% Tween-20) at a flow rate of 0.1 mL/min for 240 s, FHR3 was injected at a protein concentration of 0.02 mg/ml in running buffer with fivefold molar excess of bifunctional compound and a flow rate of 0.03 mL/min followed by 4 washes with running buffer with 1 μM of bifunctional compound (0.1 mL/min for 60 seconds each).
A general note: Surface plasmon resonance follows binding to a sensor surface in real time, without labels.
{CH2CO}-FK([dPEG9 diacid-tri‑GalNAc ASGPR ligand])[NMeA]SLHW[NMeA]RPDRCG-NH2 (other, thioether N-13; reading uncertain) [Bifunctional compound (BFC-14)] returned a Kd of 80 nM.
Still for that read-out and setting: in the case of B1 it was 13 nM; in that of B2, 48 nM; in that of B3, 8 nM.
The same measure, in the same setting: the same measure for B4: 15 nM; for B5: 162 nM.
Still for that read-out and setting: in the case of {CH2CO}-FR[NMeF]SVNY[Sar]RK([dPEG9 diacid-tri‑GalNAc ASGPR ligand])[Tic]N[NMeF]CG-NH2 (other, thioether N-14; reading uncertain) [Bifunctional compound (BFC-17)] it was 55 nM.

The next experiment deals with T2, Purified recombinant full length human PCSK9 with C-terminal biotinylated Avitag (human, UniProt Q8NBP7 31-692, biotin on the C-terminal Avitag).
T2 construct: also called hPCSK9; proprotein convertase subtilisin/kexin type 9; not shown: C-terminal biotinylated Avitag
T2 sequence (Q8NBP7 31-692): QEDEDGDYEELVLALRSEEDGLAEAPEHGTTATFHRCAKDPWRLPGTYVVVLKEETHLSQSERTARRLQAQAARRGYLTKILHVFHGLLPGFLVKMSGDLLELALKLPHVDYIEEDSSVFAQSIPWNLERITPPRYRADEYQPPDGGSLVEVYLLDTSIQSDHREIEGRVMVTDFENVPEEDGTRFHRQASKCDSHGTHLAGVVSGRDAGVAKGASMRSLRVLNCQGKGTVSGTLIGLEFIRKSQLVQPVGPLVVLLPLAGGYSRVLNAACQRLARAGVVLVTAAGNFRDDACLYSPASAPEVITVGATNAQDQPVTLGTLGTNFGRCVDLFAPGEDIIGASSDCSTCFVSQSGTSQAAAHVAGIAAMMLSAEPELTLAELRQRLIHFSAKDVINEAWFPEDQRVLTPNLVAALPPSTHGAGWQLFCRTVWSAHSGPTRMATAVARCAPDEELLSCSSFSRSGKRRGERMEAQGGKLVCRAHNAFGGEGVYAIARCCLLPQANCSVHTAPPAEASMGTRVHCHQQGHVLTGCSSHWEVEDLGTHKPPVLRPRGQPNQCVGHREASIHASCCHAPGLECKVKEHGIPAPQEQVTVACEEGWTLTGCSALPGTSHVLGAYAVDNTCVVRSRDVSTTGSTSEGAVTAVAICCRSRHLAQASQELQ
Kind of experiment: SPR, ProteOn XPR36; biotinylated human PCSK9 on NeutrAvidin NLC chip. As for the experimental part:
SPR was used to obtain the binding data for PCSK9 receptor ligand compound (C5), either alone or as part of the bifunctional compounds (BFC1), respectively.
as §1, with “Purified recombinant full length human PCSK9” for “Purified FHR3”, “Biotinylated human PCSK9” for “Biotinylated FHR3”, “bifunctional compound (BFC1)” for “bifunctional compounds (BFC13), (BFC14), (BFC15), (BFC16)”, “or compound (C₅),” for “or (BFC17), or compounds (C12), (C13), (C14), (C15) or (C16),”, “s, PCSK9 protein” for “s, FHR3”
Consider B6, for which the Kd came to 1.2 nM.
As to B7, the Kd was 9.2 nM.
Same read-out and setting: in the case of B8 it was 4.1 nM.

A further experiment has as its target T3, M6PR.
T3 construct: also called mannose-6-phosphate receptor; M6P receptor
Kind of experiment: SPR, no details given; binding is through the mannose phosphonate moiety of the conjugate.
In the case of B8, binding was characterised by a dissociation constant (Kd) of 110 nM.
Still for that read-out and setting: the same measure for B9: 480 nM; for B10: 170 nM.

The next experiment has as its target T3, M6PR. Kind of experiment: SPR, no details given; binding is through the mannose-6-phosphate moiety of the conjugate.
With B7, the affinity, expressed as Kd, was 7.19 nM.
